According to PMC7614228, “Structural maturation of SYCP1-mediated meiotic chromosome synapsis by SYCE3” (Nature structural & molecular biology, 2023):
Several values for one entry are separate records, joined by “and”; a condition that tells them apart may be missing. Equal values may be shown once.

What was measured:
[1] = molecular target: the molecule itself; test: SEC-MALS; proteins in isolation, 5-20 mg/ml; Superdex 200 Increase, 20 mM Tris pH 8.0, 150 mM KCl, 2 mM DTT
[2] = molecular target: T1, SYCP1αNcore (amino-acids 206-362) (human, UniProt Q15431 206-362); test: ITC; SYCE3 (400 μM) injected into SYCP1αNcore (70 μM) at 30°C; 25 mM Tris pH 8.0, 250 mM KCl, 2 mM DTT; apparent affinity; conditions: both partners purified
T1 construct: SYCP1 αNcore (tetrameric core), amino-acids 206-362; Tetramer alone (SEC-MALS); two chains in the 2:1 complex with SYCE3; also called SYCP1 tetrameric core; source: E. coli BL21(DE3), purified alone or co-expressed and co-purified with SYCE3 (amylose, TEV, anion exchange, SEC); not shown: MBP, N-terminal, cleaved
T1 sequence (looked up): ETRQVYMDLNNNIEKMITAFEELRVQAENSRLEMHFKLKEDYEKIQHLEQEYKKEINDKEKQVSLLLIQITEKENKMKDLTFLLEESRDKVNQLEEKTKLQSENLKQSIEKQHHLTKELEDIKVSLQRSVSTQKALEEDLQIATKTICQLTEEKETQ

[3] = molecular target: T2, SYCE2-TEX12core (human, UniProt Q6PIF2 57-165; Q9BXU0 49-123, RED dye (Monolith NT Protein Labelling Kit RED) in the MST only; which chain not stated | RED dye (Monolith NT Protein Labelling Kit RED) in the MST only; which chain not stated); test: MST; SYCE3 titrated into 150 nM labelled SYCE2-TEX12core; Monolith NT.115, excitation and MST power 40 %; apparent affinity; conditions: both partners purified
T2 construct: SYCE2 core; TEX12 core; Unlabelled in the SEC, labelled in the MST; source: E. coli BL21(DE3), purified
T2 sequence (looked up) 1: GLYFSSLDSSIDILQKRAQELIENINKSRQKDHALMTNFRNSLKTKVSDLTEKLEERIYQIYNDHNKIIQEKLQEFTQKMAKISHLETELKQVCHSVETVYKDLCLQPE
T2 sequence (looked up) 2: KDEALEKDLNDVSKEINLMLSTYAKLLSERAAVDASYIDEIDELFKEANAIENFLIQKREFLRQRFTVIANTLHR

[4] = molecular target: T3, SYCP1 αCore-ΔNtip (amino-acids 112-783) (human, UniProt Q15431 112-783); test: SEC-MALS; co-expressed and co-purified SYCP1-SYCE3 complexes, 5-20 mg/ml; 20 mM Tris pH 8.0, 150 mM KCl, 2 mM DTT (Superose 6 Increase for MBP-SYCP1αN-His-SYCE3); conditions: both partners purified
T3 construct: SYCP1 α-helical core without the αNtip, amino-acids 112-783; also called SYCP1's full α-helical core, in which αNtips were deleted; source: E. coli BL21(DE3), purified, alone or in complex with SYCE3
T3 sequence (looked up): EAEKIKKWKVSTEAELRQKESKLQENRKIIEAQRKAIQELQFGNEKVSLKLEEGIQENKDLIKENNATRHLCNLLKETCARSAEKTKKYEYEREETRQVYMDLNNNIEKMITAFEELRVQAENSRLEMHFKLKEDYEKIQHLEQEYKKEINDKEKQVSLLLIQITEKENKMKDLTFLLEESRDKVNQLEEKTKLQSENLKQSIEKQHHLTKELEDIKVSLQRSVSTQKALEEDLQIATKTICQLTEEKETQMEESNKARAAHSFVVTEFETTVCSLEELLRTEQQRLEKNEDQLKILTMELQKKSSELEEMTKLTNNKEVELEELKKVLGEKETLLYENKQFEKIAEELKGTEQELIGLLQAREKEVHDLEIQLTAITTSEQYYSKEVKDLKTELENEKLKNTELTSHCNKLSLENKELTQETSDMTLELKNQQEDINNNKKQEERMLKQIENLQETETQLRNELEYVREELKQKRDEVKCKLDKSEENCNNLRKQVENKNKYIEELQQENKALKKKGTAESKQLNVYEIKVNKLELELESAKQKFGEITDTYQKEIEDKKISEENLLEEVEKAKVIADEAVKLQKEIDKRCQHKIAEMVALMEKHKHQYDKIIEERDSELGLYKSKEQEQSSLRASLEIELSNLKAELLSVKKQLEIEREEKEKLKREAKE

[5] = molecular target: T1, SYCP1αNcore (amino-acids 206-362); test: as above; conditions: both partners purified
[6] = molecular target: T4, SYCP1αN ΔNtip (human, UniProt Q15431 112-362); test: as above; conditions: both partners purified
T4 construct: SYCP1αN (101-362) with the αNtip (101-111) deleted; also called SYCP1 ΔNtip; source: E. coli BL21(DE3), co-purified with SYCE3
T4 sequence (looked up): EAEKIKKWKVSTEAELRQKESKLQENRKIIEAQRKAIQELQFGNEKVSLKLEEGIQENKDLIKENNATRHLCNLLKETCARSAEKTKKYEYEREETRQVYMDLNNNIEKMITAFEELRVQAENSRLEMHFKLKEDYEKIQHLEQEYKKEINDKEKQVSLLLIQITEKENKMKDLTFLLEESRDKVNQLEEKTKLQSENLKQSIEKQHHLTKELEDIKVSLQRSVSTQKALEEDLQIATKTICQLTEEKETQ

[7] = molecular target: T5, SYCP1αN (amino-acids 101-362) (human, UniProt Q15431 101-362); test: as above; conditions: both partners purified
T5 construct: SYCP1 α-helical N-terminal region, amino-acids 101-362; source: E. coli BL21(DE3), purified, alone or co-expressed and co-purified with SYCE3
T5 sequence (looked up): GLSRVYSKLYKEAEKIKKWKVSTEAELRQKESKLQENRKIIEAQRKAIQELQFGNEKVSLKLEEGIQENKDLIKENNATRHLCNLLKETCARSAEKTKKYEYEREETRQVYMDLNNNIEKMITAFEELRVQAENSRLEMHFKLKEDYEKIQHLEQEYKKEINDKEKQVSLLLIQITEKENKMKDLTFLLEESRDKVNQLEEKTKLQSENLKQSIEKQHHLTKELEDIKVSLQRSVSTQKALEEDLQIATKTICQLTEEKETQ

[8] = molecular target: T6, SYCP1αN V105E L109E (human, UniProt Q15431 101-362, V105E | L109E); test: as above; conditions: both partners purified
T6 construct: SYCP1αN, amino-acids 101-362, with V105E L109E; source: E. coli BL21(DE3), in complex with SYCE3
T6 sequence (looked up): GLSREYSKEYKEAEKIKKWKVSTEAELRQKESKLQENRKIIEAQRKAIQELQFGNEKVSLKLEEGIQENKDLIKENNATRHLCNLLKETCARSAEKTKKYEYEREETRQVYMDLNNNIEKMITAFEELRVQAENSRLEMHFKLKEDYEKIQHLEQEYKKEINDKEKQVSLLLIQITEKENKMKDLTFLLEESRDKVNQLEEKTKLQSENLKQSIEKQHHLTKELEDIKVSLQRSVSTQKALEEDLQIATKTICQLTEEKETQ

Kd [2]: 170 nM
apparent KD of one replicate [2]: 230 nM and 120 nM and 160 nM
Kd [3]: 21800 nM
stoichiometry N [4]: 2 SYCP1 chains per SYCE3 chain
stoichiometry N [5]: 2 SYCP1 chains per SYCE3 chain
stoichiometry N [6]: 2 SYCP1 chains per SYCE3 chain
stoichiometry N [8]: 2 SYCP1 chains per SYCE3 chain
B1: SYCE3 (natural protein, human, UniProt A1L190 1-88, looked up)
chain: MDDADPEERNYDNMLKMLSDLNKDLEKLLEEMEKISVQATWMAYDMVVMRTNPTLAESMRRLEDAFVNCKEEMEKNWQELLHETKQRL
notes: SYCE3 without a stated truncation; Dimer alone (SEC-MALS); one chain in the 2:1 complex with SYCP1; also called SYCE3 wild-type; free SYCE3; source: E. coli BL21(DE3), purified (Ni-NTA or amylose, TEV, anion exchange, SEC), alone or co-purified with SYCP1 constructs; not shown: His or His-MBP, N-terminal, cleaved
stoichiometry N [1]: 2
stoichiometry N [7]: 2 SYCP1 chains per SYCE3 chain (2:1) and 4 SYCP1 chains with 2 SYCE3 chains (4:2)
